Experimental data from patent publication US20210355194A1 (TWIST BIOSCIENCE, published 2021).
Where two headings read alike, the source gives them in different places.

B1: 2-8 (antibody, V domains shown)
VH: EVQLLESGGGLVQPGGSLRLSCAASGFTFSDFAMAWVRQAPGKGLEWVSAISGSGDITYYADSVKGRFTISRDNSKNTLYLQMNSLRAEDTAVYYCAREADGLHSPWHFDLWGQGTLVTVSS
VL: DIQMTQSPSSLSASVGDRVTITCRASQSIDTYLNWYQQKPGKAPKLLIYAASALASGVPSRFSGSGSGTDFTLTISSLQPEDFATYYCQQSYSAPPYTFGQGTKVEIK
notes: also called variant 2-8
B2: 2-9 (antibody, V domains shown)
VH: EVQLLESGGGLVQPGGSLRLSCAASGFTFPRYAMSWVRQAPGKGLEWVSTISGSGSTTYYADSVKGRFTISRDNSKNTLYLQMNSLRAEDTAVYYCARLIDAFDIWGQGTLVTVSS
VL: DIQMTQSPSSLSASVGDRVTITCRASQRIGTYLNWYQQKPGKAPKLLIYAASNLEGGVPSRFSGSGSGTDFTLTISSLQPEDFATYYCQQNYSTTWTFGQGTKVEIK
notes: also called variant 2-9

Experiments:
SARS-CoV-2 S1 protein [1] = target: T1, SARS-CoV-2 S1 protein (SARS-CoV-2, UniProt P0DTC2 16-685); assay: Carterra SPR, Fc capture, S1
T1 construct: also called SARS-CoV-2 Spike Glycoprotein S1; S1 (subunit 1)

SARS-CoV-2 S1 protein [2] = target: T1, SARS-CoV-2 S1 protein; assay: Carterra SPR, direct capture (DC), S1
SARS-CoV-2 S1 protein [3] = target: T1, SARS-CoV-2 S1 protein; assay: inhibitor ELISA, competitor ACE2
SARS-CoV-2 S1 protein [4] = target: T1, SARS-CoV-2 S1 protein; assay: phage ELISA screen on S1, mean
SARS-CoV-2 S1 protein [5] = target: T1, SARS-CoV-2 S1 protein; assay: ELISA binding titration on coated antigen
SARS-CoV-2 S1 protein [6] = target: T1, SARS-CoV-2 S1 protein
SARS-CoV-2 S1 protein [7] = target: T1, SARS-CoV-2 S1 protein; remark: listed apart in the source

Binder	Kd (SARS-CoV-2 S1 protein [1]) [nM]	Kd (SARS-CoV-2 S1 protein [2]) [nM]	IC50 (SARS-CoV-2 S1 protein [3]) [nM]	ELISA(Avg) (SARS-CoV-2 S1 protein [4]) [fold over background]	EC50 (SARS-CoV-2 S1 protein [5]) [nM]	EC50 (SARS-CoV-2 S1 protein [6]) [nM]	IC50 (SARS-CoV-2 S1 protein [7]) [nM]
B1	52.8	33.4	12.2	32.4	0.08	–	–
B2	–	–	–	–	–	12.6	23.2
